Test results from US20240092854A1 (WASHINGTON UNIVERSITY, published 2024).

Target: T1, murine NKG2D on NK cells / splenocytes (mouse, UniProt O54709 1-232)
T1 construct: whole, on cells; also called NKG2D receptor
T1 sequence: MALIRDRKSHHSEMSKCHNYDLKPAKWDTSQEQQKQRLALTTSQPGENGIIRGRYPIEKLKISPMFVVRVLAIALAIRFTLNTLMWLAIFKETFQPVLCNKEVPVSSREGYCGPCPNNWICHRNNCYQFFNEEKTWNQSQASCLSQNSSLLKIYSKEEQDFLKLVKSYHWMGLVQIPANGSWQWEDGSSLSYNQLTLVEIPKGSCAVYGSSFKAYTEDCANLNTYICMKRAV
Experiment: flow cytometry, fluorescently labeled construct on bulk splenocytes at 37° C.

B1: OMCP-mutIL-2 (R38A, F42K, C125S IL2-OMCP construct) (other)
chain: HKLAFNFNLEINGSDTHSTVDVYLDDSQIITFDGKDIRPTIPFMIGDEIFLPFYKNVFSEFFSLFRRVPTSTPYEDLTYFYECDYTDNKSTFDQFYLYNGEEYTVKTQEATNKNMWLTTSEFRLKKWFDGEDCIMHLRSLVRKMEDSKRNTGGTGSSGSSDYKDDDDKHHHHHHHHGSSGSSAPTSSSTKKTQLQLEHLLLDLQMILNGINNYKNPKLTAMLTKKFYMPKKATELKHLQCLEEELKPLEEVLNLAQSKNFHLRPRDLISNINVIVLELKGSETTFMCEYADETATIVEFLNRWITFSQSIISTLT
notes: also called OMCP-mutant IL-2; OMCP-IL2 construct
Q: Does B1 bind?
A: Result: binds
